T1: recombinant human IL13Ra2 (ACROBiosystems; CAT #: IL2-H52H5) (human, UniProt Q14627 27-343)
T1 construct: Bought protein, coated on the ELISA plate; also called Interleukin-13 Receptor Subunit Alpha 2; immobilized recombinant IL13Ra2
T1 sequence (looked up): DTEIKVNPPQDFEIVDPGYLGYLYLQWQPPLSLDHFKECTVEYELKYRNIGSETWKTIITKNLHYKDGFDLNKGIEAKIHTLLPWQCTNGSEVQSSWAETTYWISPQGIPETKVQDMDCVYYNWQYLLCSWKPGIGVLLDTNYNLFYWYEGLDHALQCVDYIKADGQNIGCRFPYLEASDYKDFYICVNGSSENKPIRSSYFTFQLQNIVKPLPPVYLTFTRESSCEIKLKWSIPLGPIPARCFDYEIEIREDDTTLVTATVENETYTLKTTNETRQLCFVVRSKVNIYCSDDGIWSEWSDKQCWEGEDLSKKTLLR

B1: L3A6-C (chimeric version of L3A6) (antibody, V domains shown)
VH: QVQLQQPGAELVKPGAPVKLSCKASGYTFTNYWMNWVKQRPGRGLEWIGRIDPSDTETHYNQEVKDKATLTVDKSSSTAYIQLSSLTSEDSAVYYCARGYGTYYGMDYWGQGTSVTVSS
VL: not shown
notes: Mouse VH and VL fused to the constant regions of human IgG1 heavy chain and kappa light chain
B2: L3A6-H1L1 (humanized mAb constructed with L3A6-H1 heavy chain and L3A6-L1 light chain) (antibody, V domains shown)
VH: QVTLRESGPALVKPTQTLTLTCTASGYTFTNYWMNWVRQPPGKALEWIGRIDPSDTETHYNQEVKDRATLSVDKSKNQAVLTMTNMDPVDTATYYCARGYGTYYGMDYWGQGSLVTVSS
VL: DIVLTQSPDSLSVSLGERATINCRASESVDNYGISFMNWFQQKPGQPPKLLIYAASNQGSGVPDRFSGSGSGTDFTLTISSLQAEDVAVYFCQQSKEVPWTFGGGTKVEIK
notes: Humanized VH and VL fused to the constant regions of human IgG1 heavy chain and kappa light chain

Columns and labels:
[1] = molecular target: T1, recombinant human IL13Ra2 …; experiment: ELISA, antigen coated on plate, anti-human IgG Fc-HRP detection
Source text: FIGS. 1A-1E show the binding of purified chimeric anti-IL13Ra2 mAbs (VH and VL regions of mouse mAb fused to the constant regions of human IgG1 heavy chain and kappa light chain, respectively) to immobilized recombinant IL13Ra2 in an ELISA assay. The antigen was human IL13Ra2 (ACROBiosystems; Newark, DE; CAT #: IL2-H52H5). L3A6-C refers to the chimeric version of L3A6, other antibodies following the same naming rule; Isotype control (IgG1) was included as a negative control antibody.
Purified chimeric mAbs were tested in an ELISA assay for their ability to bind to immobilized IL13Ra2. Recombinant human IL13Ra2 in Carbonate-Bicarbonate Buffer (Sigma; St. Louis, MO; Cat #: C3041-100CAP) was coated on a 96-well plate at room temperature for 1 hour. The plate is blocked by 5% BSA in TBST for 1 hour at room temperature. In each well of an individual plate, mAbs at various concentrations were incubated for 1 hour at room temperature. The plate was washed and the binding to IL13Ra2 was detected by a mouse anti-human IgG Fc antibody conjugated to horseradish peroxidase (Genescript; Piscataway, NJ; Cat #: A01854) with incubation for 1 hour at room temperature. Then after washing, the ELISA was developed using One-step Detection Solution (ThermoFisher Scientific; Waltham, MA; Cat #: 34028) and measured as the absorbance at 450 nm. […]

[2] = molecular target: T1, recombinant human IL13Ra2 …; experiment: ELISA, antigen coated on plate

Binder | binding result [1] | binding result [2]
B1 | binds | –
B2 | – | binds
